Results from patent EP4631972A1, “SITE-SPECIFIC COUPLED PEGYLATED INTERLEUKIN-2 MUTANT WITH RECEPTOR AFFINITY PREFERENCE AND USE THEREOF” (priority 2022, dated 2024).

Tests used:
Treg cells [1] = assay: Pharmacodynamic study in cynomolgus monkeys, peripheral Treg cells; format: in vivo; details: doses ≤400 µg/kg
Text: For information on administration and grouping, see Table 14.

Treg cells [2] = assay: Pharmacodynamic (PD) study in mice, peripheral Treg cells; format: in vivo, Balb/c mice; details: 1 mg/kg s.c. single administration
Protocol: In this example, the pharmacodynamics (PD) of each IL-2 mutant obtained in Example 6 was studied in mice after a single administration to mice. SPF grade Balb/c mice were purchased and randomly divided into groups according to body weight, with 3 mice in each group. Drug administration started on the day of grouping. The dosing and grouping information is shown in Table 9, where G1-G5 were administered once, G6 and G7 were administered once a day, for a total of three doses. 30 µl of blood was taken from each group of mice, for PEGylated IL2 mutants and the negative control, blood was collected on day 0 (pre-administration), day 2, 3, 4, 5, 6 and 7 (only for G3, G4 and G5), and for IL2 and IL2-N88R, blood was collected on day 0 (pre-administration), day 1, 2 and 3. The number of each cell subpopulation was measured by flow cytometry. Antibodies against the staining marker used in flow cytometry are shown in Table 10, and the gating settings are shown in Table 11. Table 9 Dosing and grouping table for single-dose PD study in mice

B1: 80K-1PEG-IL2-N88R-N77C: IL-2 mutant N88R, N77C, conjugation site 77, PEG molecular weight 80kD (conjugate)
chain: APTSSSTKKTQLQLEHLLLDLQMILNGINNYKNPKLTRMLTFKFYMPKKATELKHLQCLEEELKPLEEVLNLAQSKC(PEG 80 kDa)FHLRPRDLISRINVIVLELKGSETTFMCEYADETATIVEFLNRWITFSQSIISTLT
activation and proliferation of peripheral blood Treg cells (Treg cells [1]): clear activation and proliferation | activation peak of Treg proportion, time (Treg cells [2]): 6 days | increase in Treg proportion at peak (Treg cells [2]): about 15 fold
